Test results from patent US20230295310A1 (ABCELLERA BIOLOGICS, published 2023).

What was measured:
[1] = molecular target: T1, cynomolgus monkey CD3 (cynomolgus monkey, UniProt Q95LI5 22-198; Q95LI8 22-171; Q95LI7 23-181); experiment: flow cytometry, cyno primary T cells
T1 construct: whole, on cells; CD3 on purified cynomolgus monkey CD3 pan T cells; also called cyno CD3; CD3 on cyno primary T cells
Procedure, shortened: (§1)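 Cells expressing CD3 were exposed to each antibody diluted to 25 nM for 30 minutes at 4° C, then analysed by flow cytometry. The median fluorescence signal was expressed relative to an isotype control, and a value of at least 10 indicated binding.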

[2] = molecular target: T2, cynomolgus monkey CD3 expressed on primary T cells (cynomolgus monkey, UniProt Q95LI5 22-198; Q95LI8 22-171; Q95LI7 23-181); experiment: flow cytometry, 25 nM, cyno primary T cells
T2 construct: whole, on cells; CD3 complex on purified cynomolgus monkey T cells; also called cyno CD3
Procedure, shortened: as §1

[3] = molecular target: T3, human CD3 expressed on cells (human, UniProt P07766 23-207; P04234 22-171; P09693 23-182); experiment: flow cytometry, 25 nM
T3 construct: whole, on cells; CD3 complex on Jurkat cells and on human primary T cells
Procedure, shortened: as §1

[4] = molecular target: T3, human CD3 expressed on cells; experiment: flow cytometry, 25 nM, Jurkat cells (human primary T cells in c4 also <10)
Procedure: Purified antibodies were confirmed to bind CD3 expressed on cells using the CytoFLEX S or LX flow cytometers (Beckman Coulter). Antibodies were diluted to 25 nM in FACS buffer (PBS+2% FBS) and were incubated with CD3-expressing cells for 30 minutes at 4° C. […] The median fluorescence intensity of the binding signal for each antibody was normalized to the isotype control to obtain a fold over isotype value. An antibody with a fold over isotype (FOI) of ≥10 was considered to be positive for binding.

T3 sequence (P07766 23-207, chain 1 of 3): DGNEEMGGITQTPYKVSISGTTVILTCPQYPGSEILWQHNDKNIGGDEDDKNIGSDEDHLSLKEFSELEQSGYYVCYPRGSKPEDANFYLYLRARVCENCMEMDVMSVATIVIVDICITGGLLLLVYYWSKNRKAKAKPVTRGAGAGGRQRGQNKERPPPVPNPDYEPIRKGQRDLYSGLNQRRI
T3 sequence (P04234 22-171, chain 2 of 3): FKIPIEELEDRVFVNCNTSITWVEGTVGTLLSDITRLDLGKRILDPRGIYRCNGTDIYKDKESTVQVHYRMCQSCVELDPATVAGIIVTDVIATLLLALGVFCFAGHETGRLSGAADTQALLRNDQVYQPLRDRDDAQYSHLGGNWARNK
T3 sequence (P09693 23-182, chain 3 of 3): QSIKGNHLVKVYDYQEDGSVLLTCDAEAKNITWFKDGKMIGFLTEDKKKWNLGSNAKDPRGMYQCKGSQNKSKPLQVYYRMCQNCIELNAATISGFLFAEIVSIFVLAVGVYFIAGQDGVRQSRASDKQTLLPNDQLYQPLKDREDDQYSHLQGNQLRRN
T2 sequence (Q95LI5 22-198, chain 1 of 3): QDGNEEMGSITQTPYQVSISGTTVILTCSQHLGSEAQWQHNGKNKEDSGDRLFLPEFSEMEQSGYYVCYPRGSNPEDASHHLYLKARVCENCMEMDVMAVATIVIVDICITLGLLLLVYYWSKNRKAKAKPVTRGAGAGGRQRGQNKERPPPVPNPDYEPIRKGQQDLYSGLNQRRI
T2 sequence (Q95LI8 22-171, chain 2 of 3): as the sequence (P04234 22-171, chain 2 of 3) above, with I5V, N15K, I20V, S32T, D33N, I34N, T64A, S74N, V83L, H141R counted along it
T2 sequence (Q95LI7 23-181, chain 3 of 3): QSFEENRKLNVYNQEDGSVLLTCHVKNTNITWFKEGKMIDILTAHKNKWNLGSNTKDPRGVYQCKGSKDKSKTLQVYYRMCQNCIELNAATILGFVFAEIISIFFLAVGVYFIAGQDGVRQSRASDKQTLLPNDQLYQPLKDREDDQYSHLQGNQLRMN
T1 sequence (Q95LI5 22-198, chain 1 of 3): as the sequence (Q95LI5 22-198, chain 1 of 3) above
T1 sequence (Q95LI8 22-171, chain 2 of 3): as the sequence (P04234 22-171, chain 2 of 3) above, with I5V, N15K, I20V, S32T, D33N, I34N, T64A, S74N, V83L, H141R counted along it
T1 sequence (Q95LI7 23-181, chain 3 of 3): as the sequence (Q95LI7 23-181, chain 3 of 3) above

binding result [2]	Human primary T Cell Binding (FOI) [3]	binding result [4]	Binder	binding result [1]
–	–	–	mAb 320 (antibody, V domains shown, VH and VL only) VH: QVQLVESGGGVVQPGRSLRLSCAASGFTFRSYGMHWVRQAPGKGLEWVAIIWYDGSKKYYADSVKGRFTISRDNSKNILYLQMNSLRAEDTAVYYCARQEFNWNDGGYYYMDVWGKGTTVTVSS VL: DIQLTQSPSFLSASVGDRVTITCRASQGISSYLDWCQQKPGKAPKLLIYAASTLQSGVPSRFSGSGSGTEFTLTISSLQPEDFATYYCQQLDNYPPTFGGGTKVEIK	no binding (tested: FOI ≥10 = positive; 25 nM)
–	–	–	mAb 321 (antibody, V domains shown, VH and VL only) VH: QVQLVESGGGVVQPGRSLRLSCVASGFTFRSFGMHWVRQAPGKGLEWVVVISNDGSHKYYVESVKGRFTISRDNSKNTLYLQMNSLRPEDTAVYYCARRDYYGSGMDVWGKGTTVTVSS VL: SYELTQPPSVSVSPGQTARITCSGDALPKKYAYWYQQKSGQAPVLVIYEDRKRPSGIPERFSGSSSGTMATLTISGAQVEDEADYYCYSTDSSGNHAVFGGGTQLTAL	no binding (tested: FOI ≥10 = positive; 25 nM)
–	–	–	mAb 322 (antibody, V domains shown, VH and VL only) VH: QVQLVESGGGVVQPGRSLRLSCVASGFTFRSYGMHWVRQAPGKGLEWVVVISNDGSHKYYVESVKGRFTISRDNSKNTLYLQMNSLRAEDTAVYYCARRDYYGSGMDVWGKGTTVTVSS VL: SYELTQPPSVSVSPGQTARITCSGDALPKKYAYWYQQKSGQAPVLVIYEDRKRPSGIPERFSGSSSGTMATLTISGAQVEDEADYYCYSTDSSGNHAVFGGGTQLTAL	no binding (tested: FOI ≥10 = positive; 25 nM)
no binding (tested: FOI >=10 = positive)	0.816 FOI	no binding (tested: FOI >=10 = positive)	mAb 64 (antibody, V domains shown) VH: QVQLMPSGAEVKEPGASVKVSCKASGYTFTGYYMHWVRQAPGQGLEWMGWINPNSGRTSYAKNFQGRVTMTRDTSISTAYMELSRLRSDDTAVYYCARIEQLVFDYWGQGTLVTVSS VL: not shown	–
–	–	–	mAb 298 (antibody, V domains shown, VH and VL only) VH: EGQLLESGGGLVQPGGSLRLSCAASGFTFSRYAMSWIRQAPGKGLEWVSVINGSGGDKNYADSVKGRFTISRDNSKNSLYLLMNGLRVEDTAIYFCAKKFSYYYYYMDVWGKGTTVTVSS VL: SYELTQPLSVSVALGQTARITCGGNNIGGKDVHWYQQKPGQAPVLVIYRDSNRPSGIPERFSGSNSGNTATLTISRAQAGDEADYYCQVWDSRTAVFGGGTQLTAL	no binding (tested: FOI ≥10 = positive; 25 nM)
–	–	–	mAb 302 (antibody, V domains shown, VH and VL only) VH: EGQLLESGGGLVQPGGSLRLSCAASGFTFSRYAMSWIRQAPGKGLEWVSVINGSGGDKNYADSVRGRFTISRDNSKNSLYLLMNGLRVEDTAIYFCAKKFSYYYYYMDVWGKGTTVTVSS VL: SYELTQPLSVSVALGQTARITCGGNNIGGKDVHWYQQKPGQAPVLVIYRDSNRPSGIPERFSGSNSGNTATLTISRAQAGDEADYYCQVWDSRTAVFGGGTQLTAL	no binding (tested: FOI ≥10 = positive; 25 nM)
–	–	–	mAb 307 (antibody, V domains shown, VH and VL only) VH: EVHLLESGGGMVQPGGSRRLSCAASGFSFRNSAMSWVRQAPGKGLEWVSVIDGRGTTSNYADSVKGRFTISRDNSKNTLYLQMNSLRAEDTAVYYCAKKYSYYYYYMDVWGKGTTVTVSS VL: SYELTQPLSVSVALGQTARITCGGNNIGSKDVHWYQQKPGQAPVLVIYRDSNRPSGIPERFSGSNSGNTATLTISRAQAGDEADYYCQVWDSRTAVFGGGTHLTAL	no binding (tested: FOI ≥10 = positive; 25 nM)
–	–	–	mAb 293 (antibody, V domains shown, VH and VL only) VH: EVQLLESGGDLVQPGGSLRLSCAASGFTFSRNAVSWVRQAPGRGLEWVSTISGRGDKTNYVDSVKGRFTISRDNSKNTLYLQMNSLRAEDTAVYYCTKMFSYYYYYMDVWGKGTTVTVSS VL: SYELTQPLSVSVALGQTARITCGGNNIGSKDVHWYQQKPGQAPVLVIYRDSNRPSGIPERFSGSNSGNTATLTISRAQAGDEADYYCQVWDSSTAVFGGGTQLTAL	no binding (tested: FOI ≥10 = positive; 25 nM)
–	–	–	mAb 308 (antibody, V domains shown, VH and VL only) VH: EVQLLESGGGSVQPGGSLRLSCAASGFTFSSYAMNWVRQAPGKGLEWISIISGGRRTGITYYAASVKGRFTISRDNSKNTLYLQMNSLRAEDTAVYYCAKMYNYYYYYIDVWGKGTTVTVSS VL: SYELTQPLSVSVALGQTARITCGGNNIGSKDVHWYQQKPGQAPVLVIYRDSNRPSGIPERFSGSNSGNTATLTISRAQAGDEADYYCQVWDSNTAVFGGGTQLTAL	no binding (tested: FOI ≥10 = positive; 25 nM)
–	–	–	mAb 299 (antibody, V domains shown, VH and VL only) VH: EVQLLESGGGLVQPGGSRRLSCAASGFTFRSYAMSWVRQAPGKGLEWVSVISIRGDSTSYADSVKGRFTISRDNSKNTLYLQMNSLRAEDTAVYYCAKKYSYYYYYMDVWGKGTTVTVSS VL: SYELTQPLSVSVALGQTARITCGGNNIGSKDVHWYQQKPGQAPVLVIYRDSNRPSGIPERFSGSNSGNTATLTISRAQAGDEADYYCQVWDSRTAVFGGGTQLTAL	no binding (tested: FOI ≥10 = positive; 25 nM)
–	–	–	mAb 315 (antibody, V domains shown, VH and VL only) VH: EVQLLESGGGLVQPGGSRRLSCAASGFTFSSYAMSWVRQAPGKGLEWVSVINTRGDSTSYADSVKGRFTISRDNSKNTLYLQMNSLRAEDTAVYYCAKKYSYYYYYMDVWGKGTTVTVSS VL: SYELTQPLSVSVALGQTARITCGGNNIGSKDVHWYQQKPGQAPVLVIYRDSNRPSGIPERFSGSNSGNTATLTISRAQAGDEADYYCQVWDSRTAVFGGGTQLTAL	no binding (tested: FOI ≥10 = positive; 25 nM)
–	–	–	mAb 305 (antibody, V domains shown, VH and VL only) VH: EVQLLESGGGLVQPGGSLRLSCAASGFSFSSFALSWVRQAPGKGLEWVSVISGNGGNKNYADSVKGRFTISRDNSKNTLYLQMNSLRAEDTAVYYCAKKYSYYYYYMDVWGKGTTVTVSS VL: SYELTQPLSVSVALGQTARITCGGNNIGGKDVHWYQQKPGQAPVLVIYRDSNRPSGIPERFSGSNSGNTATLTISRAQAGDEADYYCQVWDSRAAVFGGGTQLTAL	no binding (tested: FOI ≥10 = positive; 25 nM)
–	–	–	mAb 317 (antibody, V domains shown, VH and VL only) VH: EVQLLESGGGLVQPGGSLRLSCAASGFTFSSFAMSWVRQAPGKGLEWVSVISGNGDKKNYADSVKGRFTISRDNSKNTLYLQMNSLRAEDTAVYYCAKKYSYYYYYMDVWGKGTTVTVSS VL: SYELTQPLSVSVALGQTARITCGGNNIGSKDVHWYQQKPGQAPVLVIYRDSNRPSGIPERFSGSNSGNTATLTISRAQAGDEADYYCQVWDSRTAVFGGGTQLTAL	no binding (tested: FOI ≥10 = positive; 25 nM)
–	–	–	mAb 313 (antibody, V domains shown, VH and VL only) VH: EVQLLESGGGLVQPGGSLRLSCAASGFTFSSYAMSWVRQAPGKGLEWVSAITGSGRTTYFVDSVKGRFTISRDNSKNTLYLQMNSLRAEDTAVYYCAKKFSYYYYYMDVWGKGTTVTVSS VL: SYELTQPLSVSVALGQTARITCGGNNIGSKDVHWYQQKPGQAPVLVIYRDSNRPSGIPERFSGSNSGNTATLTISRAQAGDEADYYCQVWDRKIAVFGGGTQLTAL	no binding (tested: FOI ≥10 = positive; 25 nM)
–	–	–	mAb 309 (antibody, V domains shown, VH and VL only) VH: ELQLLESGGGLVQPGGSLRLSCAASGFTFSSYAMSWVRQAPGKGLEWVSVISGNGGNKNHADSVKGRFTISRDNSKNTLYLQMNSLRAEDTAVYYCAKKYSYYYYYMDVWGKGTTVTVSS VL: SYELTQPLSVSVALGQTARITCGGNNIGSKDVHWYQQKPGQAPVLVIYRDSNRPSGIPERFSGSNSGNTATLTISRAQAGDEADYYCQVWDSRTAVFGGGTQLTAL	no binding (tested: FOI ≥10 = positive; 25 nM)
no binding (tested: FOI >=10 = positive)	0.842 FOI	no binding (tested: FOI >=10 = positive)	mAb 63 (antibody, V domains shown) VH: QVQLVQSGAEVRKPGASVKVSCKASGYTFTGNHMHWVRQAPGQGLEWMGWINPKSGRTNFAQNFQGRVTMTRDTSISTAFMELSRLRSDDTAVYYCARMGDLLLFDFWGQGTLVTVSS VL: not shown	–
no binding (tested: FOI >=10 = positive)	1.3 FOI	no binding (tested: FOI >=10 = positive)	mAb 48 (antibody, V domains shown) VH: QVQLVQSGAEVKKPGASVKVSCKASGYTFTGYYIHWVRQAPGQGLEWMGWINPKSGNRNYAQKFQGRVTMTRDTSIDTAYMELTRLRSDDTAVYYCARIEQLVFDYWGQGTLVTVSS VL: not shown	–
no binding (tested: FOI >=10 = positive)	0.891 FOI	no binding (tested: FOI >=10 = positive)	mAb 45 (antibody, V domains shown) VH: QAQLVQSGSELKKPGASVKVSCKASGYTFTKHSMNWVRQAPGQGLEWMGWINTNTGNPMYGQGFTGRFVFSLDTSMTTTYLQISSLKAEDTAIYYCAREGDYDLWRGFFNFDYWGQGTLVTVSS VL: DIQMTQSPSSLSASVGDRVTITCRASQGIRNDLGWYQQKPGKAPKRLIYAASSLQSGVPSRFSGSGSGAEFTLTISSLQPEDFATYYCLQHNSYPRTFGQGTKVEIK	–
